Assay results reported in the supplement of paper PMC7877785.
± gives the uncertainty stated by the source.

Assay: self-splicing fitness, log relative to wild type (ln ratio); higher = more splicing; Tetrahymena group I intron in knt gene, E. coli kanamycin selection, DiMSum; sequences stand for … in CUCUCU…GGAGGGAAAAGUUAUCAGGCAUGCACCUGGUAGCUAGUCUUUAAACCAAUAGAUUGCAUCGGUUUAAAAGGCAAGACCGUCAAAUUGCGGGAAAGGGGUCAACAGCCGUUCAGUACCAAGUCUCAGGGGAAACUUUGAGAUGGCCUUGCAAAGGGUAUGGUAAUAAGCUGACGGACAUGGUCCUAACCACGCAGCCAAGUCCUAAGUCAACAGAUCUUCUGUUGAUAUGGAUGCAGUUCACAGACUAAAUGUCGGUCGGGGAAGAUGUAUUCUUCUCAUAAGAUAUAGUCGGACCUCUCCUUAAUGGGAGCUAGCGGAUGAAGUGAUGCAACACUGGAGCCGCUGGGAACUAAUUUGUAUGCGAAAGUAUAUUGAUUAGUUUUGGAGUACUCGUGGUCG
In short: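 DiMSum derived fitness as the error-weighted combination of fold changes across replicates, kanamycin versus no kanamycin, normalised to wild type. E. coli BL21(DE3) held the library, which randomised all eight P1ex-region intron nucleotides within the knt kanamycin-resistance gene on pET-22b(+). Six replicate transformations grew overnight at 37°C or 30°C on LB agar with or without 25 μg/mL kanamycin, also containing 100 μg/mL carbenicillin, 50 μM IPTG and 0.2% rhamnose, and pooled colonies were amplicon-sequenced on an Illumina HiSeq 2500.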

Row | Sequence | self-splicing fitness (ln) (30 °C) | self-splicing fitness (ln) (37 °C)
1 | UGGUAGCAAUAUUACGCCGA | -1.43 ± 0.45 | -0.492 ± 0.32
2 | UGGUAGCAAUAUUACGCCGU | -1.56 ± 0.27 | -1.42 ± 0.36
3 | UGGUAGCAAUAUUACGCUGG | -2.08 ± 0.2 | -2.52 ± 0.2
4 | UGGUAGCAAUAUUACGCUUU | -1.85 ± 0.12 | -1.46 ± 0.12
5 | UGGUAGCAAUAUUACGGAAC | – | -0.88 ± 0.24
6 | UGGUAGCAAUAUUACGGAGU | -2.76 ± 0.27 | –
7 | UGGUAGCAAUAUUACGGCCG | -1.62 ± 0.29 | -0.342 ± 0.32
8 | UGGUAGCAAUAUUACGGGAC | – | -2.89 ± 0.27
9 | UGGUAGCAAUAUUACGGGUA | -2.28 ± 0.14 | -0.719 ± 0.12
10 | UGGUAGCAAUAUUACGGUAC | -3.95 ± 0.4 | -1.43 ± 0.27
11 | UGGUAGCAAUAUUACGUAAG | -1.53 ± 0.11 | -0.776 ± 0.16
12 | UGGUAGCAAUAUUACGUACG | -1.02 ± 0.19 | -0.203 ± 0.23
13 | UGGUAGCAAUAUUACGUAUU | -3.07 ± 0.14 | -1.84 ± 0.17
14 | UGGUAGCAAUAUUACGUCCA | -0.714 ± 0.24 | -0.608 ± 0.3
15 | UGGUAGCAAUAUUACGUGAG | -1.05 ± 0.092 | 0.0891 ± 0.11
16 | UGGUAGCAAUAUUACGUGUG | -1.29 ± 0.071 | -0.469 ± 0.082
17 | UGGUAGCAAUAUUACGUGUU | -3.24 ± 0.28 | -1.82 ± 0.29
18 | UGGUAGCAAUAUUACGUUCG | -0.221 ± 0.12 | -0.719 ± 0.14
19 | UGGUAGCAAUAUUACGUUGA | -0.502 ± 0.17 | -0.66 ± 0.15
20 | UGGUAGCAAUAUUACGUUGU | -4.52 ± 0.36 | -2.86 ± 0.26
21 | UGUAAGCAAUAUUACGAGGC | -1.16 ± 0.26 | -1.17 ± 0.41
22 | UGUAAGCAAUAUUACGAGGG | -3.68 ± 0.27 | -2.14 ± 0.3
23 | UGUAAGCAAUAUUACGAGUC | – | -2.47 ± 0.33
24 | UGUAAGCAAUAUUACGAUUA | -0.52 ± 0.076 | 0.447 ± 0.089
25 | UGUAAGCAAUAUUACGCGAA | -2.68 ± 0.14 | -1.33 ± 0.17

Row | Sequence | self-splicing fitness (ln) (30 °C) | self-splicing fitness (ln) (37 °C)
26 | UGUAAGCAAUAUUACGCGUA | -0.832 ± 0.14 | -0.754 ± 0.15
27 | UGUAAGCAAUAUUACGCUAU | -3.7 ± 0.32 | -2.24 ± 0.29
28 | UGUAAGCAAUAUUACGCUCG | -1.1 ± 0.11 | -0.752 ± 0.13
29 | UGUAAGCAAUAUUACGGAAG | -1.91 ± 0.13 | -2.38 ± 0.21
30 | UGUAAGCAAUAUUACGGGAU | -3.28 ± 0.32 | -2.46 ± 0.29
31 | UGUAAGCAAUAUUACGGGGA | – | -1.19 ± 0.25
32 | UGUAAGCAAUAUUACGGUAC | -1.81 ± 0.45 | –
33 | UGUAAGCAAUAUUACGGUUA | -0.297 ± 0.091 | -0.0116 ± 0.098
34 | UGUAAGCAAUAUUACGUGCG | -0.869 ± 0.075 | -0.337 ± 0.1
35 | UGUAAGCAAUAUUACGUUCA | -0.719 ± 0.1 | -0.118 ± 0.14
36 | UGUCAGCAAUAUUACGAAAG | -1.72 ± 0.14 | -1.21 ± 0.17
37 | UGUCAGCAAUAUUACGAAAU | -2.21 ± 0.19 | -1.18 ± 0.19
38 | UGUCAGCAAUAUUACGAAUU | -0.864 ± 0.13 | -1.04 ± 0.13
39 | UGUCAGCAAUAUUACGACAC | -3.09 ± 0.47 | –
40 | UGUCAGCAAUAUUACGACAG | -1.62 ± 0.16 | -0.615 ± 0.14
41 | UGUCAGCAAUAUUACGACCC | -0.106 ± 0.22 | 0.358 ± 0.26
42 | UGUCAGCAAUAUUACGACCU | -0.114 ± 0.17 | 0.566 ± 0.17
43 | UGUCAGCAAUAUUACGACGC | -2.44 ± 0.22 | -1.61 ± 0.22
44 | UGUCAGCAAUAUUACGACUG | -0.284 ± 0.1 | 0.525 ± 0.13
45 | UGUCAGCAAUAUUACGAGAG | -3.21 ± 0.23 | -2.58 ± 0.2
46 | UGUCAGCAAUAUUACGCAUU | -1.74 ± 0.09 | -0.133 ± 0.092
47 | UGUCAGCAAUAUUACGCCAG | -1.31 ± 0.1 | -0.7 ± 0.12
48 | UGUCAGCAAUAUUACGCCAU | -1.79 ± 0.18 | -1.98 ± 0.16
49 | UGUCAGCAAUAUUACGCGAG | -1.31 ± 0.096 | -0.991 ± 0.098
50 | UGUCAGCAAUAUUACGCGAU | -3.41 ± 0.4 | -2.2 ± 0.34

Row | Sequence | self-splicing fitness (ln) (30 °C) | self-splicing fitness (ln) (37 °C)
51 | UGUCAGCAAUAUUACGCGGA | -2.91 ± 0.2 | -1.52 ± 0.15
52 | UGUCAGCAAUAUUACGCGUC | -2.7 ± 0.3 | -1.51 ± 0.29
53 | UGUCAGCAAUAUUACGGAAU | -2.63 ± 0.15 | -0.922 ± 0.14
54 | UGUCAGCAAUAUUACGGACA | -3.1 ± 0.29 | -1.75 ± 0.21
55 | UGUCAGCAAUAUUACGGACG | -2.2 ± 0.15 | -1.34 ± 0.18
56 | UGUCAGCAAUAUUACGGAUG | -2.07 ± 0.088 | -0.996 ± 0.1
57 | UGUCAGCAAUAUUACGGCAG | -1.55 ± 0.11 | -0.219 ± 0.13
58 | UGUCAGCAAUAUUACGGGAC | -4.31 ± 0.23 | -2.93 ± 0.34
59 | UGUCAGCAAUAUUACGGGCC | -0.854 ± 0.12 | -0.00781 ± 0.16
60 | UGUCAGCAAUAUUACGGUAC | -4.07 ± 0.46 | -1.38 ± 0.17
61 | UGUCAGCAAUAUUACGGUGG | -2.14 ± 0.099 | -1.32 ± 0.097
62 | UGUCAGCAAUAUUACGGUUG | -0.893 ± 0.049 | 0.317 ± 0.072
63 | UGUCAGCAAUAUUACGUCGA | -0.404 ± 0.073 | -0.0273 ± 0.085
64 | UGUCAGCAAUAUUACGUGAA | -0.122 ± 0.068 | 0.427 ± 0.083
65 | UGUCAGCAAUAUUACGUGAG | -0.0851 ± 0.056 | 0.251 ± 0.072
66 | UGUCAGCAAUAUUACGUUGU | -4.25 ± 0.27 | -2.3 ± 0.16
67 | UGUGAGCAAUAUUACGAAUA | -3.54 ± 0.43 | -2.26 ± 0.36
68 | UGUGAGCAAUAUUACGAAUC | -2.91 ± 0.38 | –
69 | UGUGAGCAAUAUUACGACCG | -1.22 ± 0.19 | -0.38 ± 0.21
70 | UGUGAGCAAUAUUACGACUU | -2.13 ± 0.23 | -2.33 ± 0.26
71 | UGUGAGCAAUAUUACGAGUA | -2.16 ± 0.21 | -2.07 ± 0.29
72 | UGUGAGCAAUAUUACGAGUC | -2.67 ± 0.27 | –
73 | UGUGAGCAAUAUUACGCACC | -1.27 ± 0.21 | -1.14 ± 0.22
74 | UGUGAGCAAUAUUACGCCCA | -0.902 ± 0.39 | -1.3 ± 0.36
75 | UGUGAGCAAUAUUACGCUAC | -3 ± 0.32 | –

Row | Sequence | self-splicing fitness (ln) (30 °C) | self-splicing fitness (ln) (37 °C)
76 | UGUGAGCAAUAUUACGGAAC | – | -1.72 ± 0.48
77 | UGUGAGCAAUAUUACGGCAG | -2.64 ± 0.27 | -0.26 ± 0.28
78 | UGUGAGCAAUAUUACGGGAG | -2.52 ± 0.21 | -2.04 ± 0.33
79 | UGUGAGCAAUAUUACGGGCU | -0.671 ± 0.38 | -1.48 ± 0.46
80 | UGUGAGCAAUAUUACGGUUC | -2.76 ± 0.21 | -2.9 ± 0.24
81 | UGUGAGCAAUAUUACGUCAC | -3.91 ± 0.47 | –
82 | UGUGAGCAAUAUUACGUGCA | -1.1 ± 0.14 | -0.55 ± 0.16
83 | UGUGAGCAAUAUUACGUGUG | -2.7 ± 0.11 | -0.66 ± 0.13
84 | UGUGAGCAAUAUUACGUGUU | -3.8 ± 0.25 | -2.59 ± 0.25
85 | UGUGAGCAAUAUUACGUUAG | -2.17 ± 0.25 | -2.84 ± 0.34
86 | UGUGAGCAAUAUUACGUUGG | -2.86 ± 0.31 | -2.85 ± 0.44
87 | UGUUAGCAAUAUUACGAACU | -0.445 ± 0.15 | 0.216 ± 0.18
88 | UGUUAGCAAUAUUACGAAUU | -1.44 ± 0.11 | -1.6 ± 0.22
89 | UGUUAGCAAUAUUACGACCG | -0.238 ± 0.14 | 0.106 ± 0.14
90 | UGUUAGCAAUAUUACGACUC | -1.01 ± 0.19 | -0.182 ± 0.28
91 | UGUUAGCAAUAUUACGAUGA | -0.408 ± 0.09 | -1.06 ± 0.092
92 | UGUUAGCAAUAUUACGAUGG | -1.71 ± 0.11 | -0.474 ± 0.1
93 | UGUUAGCAAUAUUACGCAAA | -0.989 ± 0.22 | -0.62 ± 0.32
94 | UGUUAGCAAUAUUACGCAUG | -1.38 ± 0.084 | -0.483 ± 0.089
95 | UGUUAGCAAUAUUACGCCCU | -0.0997 ± 0.17 | 0.532 ± 0.18
96 | UGUUAGCAAUAUUACGCCGU | -1.98 ± 0.44 | -0.747 ± 0.42
97 | UGUUAGCAAUAUUACGCGAG | -3.15 ± 0.25 | -2.42 ± 0.19
98 | UGUUAGCAAUAUUACGCGCU | -1.36 ± 0.13 | -0.409 ± 0.12
99 | UGUUAGCAAUAUUACGCUCU | -1.66 ± 0.16 | -0.371 ± 0.16
